Biological target: Coxsackie B–Adenovirus Receptor (CAR), human, of 293 cells (human (endogenous in 293)) (UniProt P78310)
Assay: ELISA; virus attachment assay: cells on 96-well plates, biotinylated AdV5 (MOI=100 virus particles per cell) for 90 min on ice (4 °C) or at 37 °C, washed, fixed with 3 % paraformaldehyde, streptavidin-HRP; anti-CAR antibodies blocked 95–98 % of the signal (data not shown)

Chain of UniProt P78310 (P78310 20-365): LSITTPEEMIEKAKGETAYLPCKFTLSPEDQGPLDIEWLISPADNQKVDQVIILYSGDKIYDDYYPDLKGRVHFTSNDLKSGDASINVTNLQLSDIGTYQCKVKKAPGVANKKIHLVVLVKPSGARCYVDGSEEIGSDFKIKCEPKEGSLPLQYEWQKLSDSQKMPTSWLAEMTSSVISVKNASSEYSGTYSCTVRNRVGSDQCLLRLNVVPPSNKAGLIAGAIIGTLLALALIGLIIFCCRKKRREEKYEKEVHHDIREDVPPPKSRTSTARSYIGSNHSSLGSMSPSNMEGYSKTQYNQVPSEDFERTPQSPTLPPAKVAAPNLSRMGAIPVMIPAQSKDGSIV

With “biotinylated AdV5-GFP virus particles (complex)” the percent of the virus attached to cells was greater than 60%.
